Columns and labels:
[1] = biological target: thrombin (Homo sapiens, UniProt P00734); assay: Incubation without serine protease in phosphate buffer, then thrombin inhibition test; type: in vitro ADME; set-up: Brown and cyan colors represent heavy and light chain of thrombin respectively; conditions: pH 7.4
Description: Recombinant protein (10 μM) was incubated with or without serine protease 1 μM (thrombin, plasmin, trypsin or factor Xa) in phosphate buffer 50 mM containing NaCl 150 mM and 0.1% of PEG 6000, pH 7.4 for 4, 6, 7 or 18 h at 37° C. Reaction mixtures (20 μl) were split by SDS-PAGE. (A) hydrolysis SDS-PAGE (15%) of recombinant protein by serine proteases following 6 h of incubation. (B) Percentage of thrombin inhibition by recombinant protein following 6 h of incubation with serine protease (see experimental procedures). (C) hydrolysis SDS-PAGE (15%) of recombinant protein by serine proteases following 18 h of incubation. (D) Percentage of thrombin inhibition by recombinant protein following 18 h of incubation with serine protease (see experimental procedures). Numbering of (B) and (D) corresponds to numbering of (A) and (C), respectively, and recombinant protein control is represented by CTRL. […]
Afterwards, it was determined whether serine proteases, like thrombin, plasmin, factor Xa and trypsin, hydrolyze recombinant protein. […] Upon addition of chromogenic substrate S-2238, the hydrolysis thereof by thrombin was monitored in spectrophotometer way. […]

[2] = biological target: T1, trypsin (Bos taurus, UniProt P00760); assay: Serine protease inhibition test, trypsin (chromogenic substrate); type: biochemical; conditions: recombinant protein 1, 100, 200 nM; protease 100 pM; 6 h at 37° C.
T1 construct: gene PRSS1
T1 sequence (P00760 24-246): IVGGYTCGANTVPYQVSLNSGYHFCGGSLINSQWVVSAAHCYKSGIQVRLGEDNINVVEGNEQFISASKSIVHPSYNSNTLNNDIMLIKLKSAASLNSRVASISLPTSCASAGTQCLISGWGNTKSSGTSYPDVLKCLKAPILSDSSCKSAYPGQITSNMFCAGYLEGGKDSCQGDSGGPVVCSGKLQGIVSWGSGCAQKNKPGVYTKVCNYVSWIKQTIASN
Description: (A) Inhibition of serine proteases through recombinant protein. Serine protease (100 pM; thrombin, plasmin, trypsin or factor Xa) was incubated with recombinant protein (1, 100 and 200 nM) in phosphate buffer 50 mM containing NaCl 150 mM and 0.1% of PEG 6000, pH 7.4 for 6 h at 37° C. Following addition of chromogenic substrate corresponding to reaction mixture, hydrolysis thereof was monitored at 405 nm. For factor Xa activity, buffer contained phosphatidylserine and phosphatidylcholine 50 μM. […] (B) Typical curves for hydrolysis of chromogenic substrate S-2238 (15 μM) by thrombin 0.1 nM in absence (trace a) or presence of recombinant protein (trace b, 15 pM; trace c, 30 pM; trace d, 60 pM and trace e, 100 pM) in phosphate buffer 50 mM containing NaCl 150 mM and 0.1% of PEG 6000, pH 7.4 at 37° C. (C) Residual activity of thrombin in presence of increasing concentration of recombinant protein. (D) Dose-response curves for thrombin inhibition by recombinant protein. Percentage of thrombin inhibition was plotted versus the concentration record of recombinant protein. Experimental condition of (C) and (D) is the same as in (B).
The first performed experiment was the test of serine proteases inhibition through recombinant protein. […] Hydrolysis of a chromogenic substrate through serine proteases in the presence and absence of recombinant protein was monitored in a spectrophotometer way. […]

[3] = tested on: isolated human plasma; assay: Prothrombin time (PT) in isolated human plasma; type: biochemical; conditions: plasma of healthy human volunteers, incubation 3 min. at 37° C.
Description: Plasma was obtained from blood of healthy human volunteer and incubated with different concentrations of recombinant protein. APTT, PT and TT were determined like experimental procedure. (A) Activated partial thromboplastin time (B) prothrombin time and (C) thrombin time. Ctrl is related to plasma and Sal is related to plasma plus saline.
Finally, PT, aPTT and TT were assessed in isolated plasma of healthy human volunteers following incubation with recombinant protein for 3 min. at 37° C. […] Maximum test reading for aPTT was achieved following 12 nM, while for PT that was achieved following 6 nM of recombinant protein (FIGS. 11A and 11B).

B1: GKPQGHPHDALEARSDAVHTAVPKMPKGGHGGFEPIPIDYDERALEARSDAVHTAVPKMPKGGLGGFEPIPIDYDERALEARSDAVHTAVPKMPKGGHGGFEPIPIDYDERALEARSDAVHTAVPKMPKGGHGGFEPIPIDYDERALHALEHHHHHH (protein)
chain: GKPQGHPHDALEARSDAVHTAVPKMPKGGHGGFEPIPIDYDERALEARSDAVHTAVPKMPKGGLGGFEPIPIDYDERALEARSDAVHTAVPKMPKGGHGGFEPIPIDYDERALEARSDAVHTAVPKMPKGGHGGFEPIPIDYDERALHALEHHHHHH
modifications: Sculptin recombinat protein
notes: recombinant His-tagged protein modified from tick sculptin, expressed in E. coli
thrombin inhibition after incubation without serine protease ([1]; 6 h at 37° C., control is 100 pM of fresh recombinant protein): inhibited thrombin in similar way to control
thrombin inhibition after incubation without serine protease ([1]; 18 h at 37° C., control of fresh recombinant protein): inhibited thrombin in similar way to control
inhibition of trypsin [2]: did not inhibit
PT [3]: prolonged by recombinant protein in concentration-dependent way
concentration at which maximum test reading for PT was achieved [3]: 6 nM

— US12187785B2, “Recombinant protein and fragments thereof, method for producing said recombinant protein, synthetic gene and use of sculptin or recombinant protein for preparing a medicament or pharmaceutical composition for the prophylaxis and/or treatment of thromboembolic diseases or as a direct and specific …” (priority 2017, dated 2025)
